The target in data set [1] is T1, Ets-2 360-464 (core Ets domain) (Homo sapiens, UniProt P15036 360-464).
T1 sequence: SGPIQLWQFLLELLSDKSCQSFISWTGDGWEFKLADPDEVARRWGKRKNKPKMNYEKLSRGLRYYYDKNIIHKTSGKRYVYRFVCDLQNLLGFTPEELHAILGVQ
The data set is described as follows: EMSA; apparent Kd; EMSA: 50 mM Tris-HCl pH 7.5, 25 mM NaCl, 50 mM L-arginine-HCl, 0.5 mM EDTA, 0.1% Tween 20, 2 mM DTT, 5% glycerol, room temperature 15 min; probe 0.1 nM (Ets-2). To be noted: protein: recombinant; tags: His tag removed by TEV; label: 5'-32P on strand 1; blunt.

For data set [2], the target named is T2, Ets-1 short (equivalent of Ets-2 360-464) (Mus musculus, UniProt P27577 331-440).
T2 sequence: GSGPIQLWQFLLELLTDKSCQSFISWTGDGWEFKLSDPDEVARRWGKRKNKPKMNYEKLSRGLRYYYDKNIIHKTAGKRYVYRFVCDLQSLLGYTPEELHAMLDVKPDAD
The data set is described as above. To be noted: protein: recombinant; tags: His tag removed by TEV; label: 5'-32P on strand 1; blunt.

The target of data set [3] is T3, Ets-2 325-464 (core Ets and autoinhibition domains) (Homo sapiens, UniProt P15036 325-464).
T3 sequence: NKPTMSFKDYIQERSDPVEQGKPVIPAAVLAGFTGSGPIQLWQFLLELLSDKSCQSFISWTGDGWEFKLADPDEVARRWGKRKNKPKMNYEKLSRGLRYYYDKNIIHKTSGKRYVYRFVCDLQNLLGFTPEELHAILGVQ
The data set is described as follows: X-ray crystallography; 2.5 A; 3 Ets-2 and 3 duplexes per asymmetric unit; pH 5.5; EMSA: 50 mM Tris-HCl pH 7.5, 25 mM NaCl, 50 mM L-arginine-HCl, 0.5 mM EDTA, 0.1% Tween 20, 2 mM DTT, 5% glycerol, room temperature 15 min; probe 0.1 nM (Ets-2). Particulars: protein: recombinant; tags: His tag removed by TEV; blunt. For orientation: In EMSA bound probe runs differently from free probe, usually more slowly.

B1: single-site EMSA probe (dsDNA)
DNA 1: ATCTCACCGGAAGTGTAGCA
DNA 2: TGCTACACTTCCGGTGAGAT
As for B1, the Kd in data set [1] came to 400 ± 40 pM; in data set [2], 100 ± 60 pM.

B2: crystallization 10-mer (dsDNA)
DNA 1: ACCGGAAGTG
DNA 2: CACTTCCGGT
For the molecule B2, the binding result in data set [3] was “binds”.

The values above are taken from PMC4375503, “Structural Insights into the Autoregulation and Cooperativity of the Human Transcription Factor Ets-2*”.
